Reference: patent publication US20190135865A1 (SORBONNE UNIVERSITE, published 2019)
One block for each binder: values may come before it. Non-standard residues stand in square brackets, D forms with d. No end group written: not given here. NMeR = CN[C@@H](CCCNC(=N)N)C(=O)O; Nle = CCCC[C@H](N)C(=O)O

Key:
CD47 [1] = biological target: T1, CD47 (UniProt Q08722 19-323, limits assumed); assay: Microscale thermophoresis (MST); NT-647-labelled Jurkat or MEC-1 cell membrane preparation held constant, peptide titrated; cyclic peptide PKTD10, FIG. 6
T1 construct: whole, on cells; The assay used a labelled whole membrane preparation from Jurkat or MEC-1 cells, not purified CD47; also called CD47 receptor
Experimental: (§1) Jurkat or Mec-1 cell membrane preparations are labeled using the Nanotemper NT-647 labeling kit as described elsewhere.xliv The labeled preparation is eluted with PBS and stored at 4° C. A stock solution of each peptide is prepared in DMSO (5 mM) and then diluted with PBS. For the peptides evaluated by MST, we have kept the concentration of the NT.115-labeled membrane constant, while the concentration of the ligand (peptide) was varied. After a short incubation the samples were loaded into MST premium glass capillaries and the MST analysis was performed using the Monolith NT.115-pico. […]
(§2) Binding affinity measurements. The binding affinities of peptides, here PKT16, PKTD1, PKTD10, PKTD10-1, PKTD10-3, PKTD10-5, PKDT10-7 and PKTD10-8 for a membrane preparation from Jurkat and/or MEC-1 cells were measured by Microscale Thermophoresis ^xlv on a Monolith NT115-pico system (Nanotemper Technologies, Munich, Germany).
(§3) Binding curve measured by MST. […] A local temperature difference ΔT leads to a local change in molecule concentration (depletion or enrichment), quantified by the Soret coefficient ST: cₕₒₜ/ccold=exP(−STΔT). […] For the peptides evaluated by MST, we have kept the concentration of the NT.115-labeled membrane constant, while the concentration of the ligand (peptide) was varied.

CD47 [2] = biological target: T1, CD47; assay: Microscale thermophoresis (MST); NT-647-labelled Jurkat or MEC-1 cell membrane preparation held constant, peptide titrated; cyclic peptide PKTD1, FIG. 6
Experimental: as §1, §2, §3

CD47 [3] = biological target: T1, CD47; assay: Microscale thermophoresis (MST); NT-647-labelled Jurkat or MEC-1 cell membrane preparation held constant, peptide titrated; linear peptide PKT16, FIG. 5
Experimental: as §1, §2, §3

T1 sequence (Q08722 19-323 limits assumed): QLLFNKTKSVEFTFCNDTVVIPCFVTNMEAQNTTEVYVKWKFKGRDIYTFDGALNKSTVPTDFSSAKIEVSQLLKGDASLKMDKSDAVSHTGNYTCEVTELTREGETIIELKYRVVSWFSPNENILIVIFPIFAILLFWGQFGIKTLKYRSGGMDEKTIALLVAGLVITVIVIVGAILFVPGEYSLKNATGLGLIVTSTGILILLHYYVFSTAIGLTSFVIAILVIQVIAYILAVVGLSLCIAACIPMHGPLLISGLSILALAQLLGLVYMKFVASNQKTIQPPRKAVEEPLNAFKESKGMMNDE

Kd (CD47 [1]): 49 nM
B1: PKTD10 (peptide)
peptide: SRFYVVMWKPPGLSVKVVNS
HELM: PEPTIDE1{S.R.F.Y.V.V.M.W.K.[dP].P.G.L.S.V.K.V.V.N.S}$PEPTIDE1,PEPTIDE1,1:R1-20:R2$$$V2.0
SMILES: CSCC[C@@H]1NC(=O)[C@H](C(C)C)NC(=O)[C@H](C(C)C)NC(=O)[C@H](Cc2ccc(O)cc2)NC(=O)[C@H](Cc2ccccc2)NC(=O)[C@H](CCCNC(=N)N)NC(=O)[C@H](CO)NC(=O)[C@H](CO)NC(=O)[C@H](CC(N)=O)NC(=O)[C@H](C(C)C)NC(=O)[C@H](C(C)C)NC(=O)[C@H](CCCCN)NC(=O)[C@H](C(C)C)NC(=O)[C@H](CO)NC(=O)[C@H](CC(C)C)NC(=O)CNC(=O)[C@@H]2CCCN2C(=O)[C@H]2CCCN2C(=O)[C@H](CCCCN)NC(=O)[C@H](Cc2c[nH]c3ccccc23)NC1=O
notes: Cyclic peptide, linear representation -S-R-F-Y-V-V-M-W-K-p-P-G-L-S-V-K-V-V-N-S-

Kd (CD47 [2]): 1.9 nM
B2: PKTD1 (peptide)
peptide: SRFYVVMWKPPGISVKVVKS
HELM: PEPTIDE1{S.R.F.Y.V.V.M.W.K.[dP].P.G.I.S.V.K.V.V.K.S}$PEPTIDE1,PEPTIDE1,1:R1-20:R2$$$V2.0
SMILES: CC[C@H](C)[C@@H]1NC(=O)CNC(=O)[C@@H]2CCCN2C(=O)[C@H]2CCCN2C(=O)[C@H](CCCCN)NC(=O)[C@H](Cc2c[nH]c3ccccc23)NC(=O)[C@H](CCSC)NC(=O)[C@H](C(C)C)NC(=O)[C@H](C(C)C)NC(=O)[C@H](Cc2ccc(O)cc2)NC(=O)[C@H](Cc2ccccc2)NC(=O)[C@H](CCCNC(=N)N)NC(=O)[C@H](CO)NC(=O)[C@H](CO)NC(=O)[C@H](CCCCN)NC(=O)[C@H](C(C)C)NC(=O)[C@H](C(C)C)NC(=O)[C@H](CCCCN)NC(=O)[C@H](C(C)C)NC(=O)[C@H](CO)NC1=O
notes: Cyclic peptide, linear representation -S-R-F-Y-V-V-M-W-K-p-P-G-I-S-V-K-V-V-K-S-

Kd (CD47 [3]): 1600 nM
Binder: [dK][NMeR]FYVV[Nle]WK[dK] (also called linear PKT16 peptide) [PKT16 [(D)Lys-(N-Me)Arg-Phe-Tyr-Val-Val-Nle-Trp-Lys-(D)Lys]]
